From patent US20020155542A1, “Inhibitors for suppressing the activity of proteins displaying CIITA activity, methods for their identification and pharmaceutical compositions” (priority 1994, published 2002)

Tests used:
[1] = tested on: MHC class II positive cells; test: Peptide binding ability of MHC class II positive melanoma cells; assay type: cell-based, human; conditions: CIITA transfectants vs interferon activated
Description: (§1) Cells where the expression of MHC class II molecules had been induced by the transactivator gene CIITA (as CIITA cDNA) were tested for their ability to bind exogenously provided peptides and to present such peptides to T cell clones. These CIITA transfectants were compared with the same cells where MHC class II expression had been induced by interferon gamma. The two types of cells expressed MHC class II molecules at the surface at a similar level. […] Peptide-specific T cell activation by these two types of MHC class II positive cells was measured by H3-thymidine incorporation, expressed as a stimulation index. In this particular experiment, melanoma cells were used as antigen-presenting cells.
In agreement with these functional results, the peptide binding ability of these two types of MHC class II positive cells was drastically different, being low in the interferon activated cells and high in the CIITA transfectants. Thus, CIITA induces the expression of MHC class II molecules that are unusual in their highly efficient capacity to bind and to present peptides to T lymphocytes, leading to activation of these lymphocytes.

[2] = tested on: human T cell clones T-50 and T-87; test: Peptide-specific T cell activation with melanoma cells as antigen-presenting cells, H3-thymidine incorporation; assay type: cell-based; conditions: melanoma cells as APC, tetanus toxoid peptide p4; CIITA transfected vs 48 hours interferon gamma
Description: FIG. 9. Activation of human T cell clones with transfectants and interferon-stimulated cells used as APC's. Three types of cells were tested as APC'S: Untransfected melanoma cell line, MHC class II negative (o); The same cell line following 48 hours of exposure to […] of interferon gamma, MHC class II positive (black square ); The same cell line previously transfected with CIITA cDNA, MHC class it positive (black triangle). These cells were treated with various concentrations of p4, a tetanus toxoid peptide, at the concentrations indicated, fixed by UV light and incubated with two different human T cell clones specific for that peptide, T-50 and T-87. The extent of T cell activation was measured by incorporation of […] in a standard assay, and expressed as “stimulation index”.
as §1, with “gamma.” for “gamma. The two types of cells expressed MHC class II molecules at the surface at a similar level.”, “In this particular experiment, melanoma cells were used as antigen-presenting cells.” left out

B1: interferon gamma (protein, UniProt P01579 24-161, looked up)
Interferon gamma: QDPYVKEAENLKKYFNAGHSDVADNGTLFLGILKNWKEESDRKIMQSQIVSFYFKLFKNFKDDQSIQKSVETIKEDMNVKFFNSNKKKRDDFEKLTNYSVTDLNVQRKAIHELIQVMAELSPAAKTGKRKRSQMLFRG
notes: lymphokine used to induce MHC class II expression in melanoma cells, comparator to CIITA transfection
[1]
  peptide binding ability: low
[2]
  peptide-specific T cell activation (stimulation index): failed to induce significant T cell activation
